Data as given in PMC10691697, “A small molecule exerts selective antiviral activity by targeting the human cytomegalovirus nuclear egress complex” (PLOS Pathogens, 2023).

B1: His-tagged HCMV UL50 (residues 1-169) (domain or fragment)
chain: MEMNKVLHQDLVQATRRILKLGPSELRVTDAGLICKNPNYSVCDAMLKTDTVYCVEYLLSYWESRTDHVPCFIFKNTGCAVSLCCFVRAPVKLVSPARHVGEFNVLKVNESLIVTLKDIEEIKPSAYGVLTKCVVRKSNSASVFNIELIAFGPENEGEYENLLRELYAK
notes: also called His-UL50; source: E. coli BL21 (DE3) RIPL, purified (nickel Sepharose, size exclusion chromatography); not shown: His, N-terminal, kept

Assays:
Test in all cases: AlphaScreen or HTRF
[1] = molecular target: His-tagged HCMV UL50 (residues 1-169) C35N (human cytomegalovirus (HCMV)) (UniProt P16791)
[2] = molecular target: His-tagged HCMV UL50 (residues 1-169) C79S (human cytomegalovirus (HCMV)) (UniProt P16791)
[3] = molecular target: His-tagged HCMV UL50 (residues 1-169) C54S (human cytomegalovirus (HCMV)) (UniProt P16791)
[4] = molecular target: T1, Myc-tagged HCMV UL53 (residues 50-292) with glycine-serine linker (human cytomegalovirus (HCMV), UniProt P16794 50-292); conditions: both partners purified
T1 construct: source: E. coli BL21 (DE3) RIPL, purified (glutathione-agarose, on-column PreScission digestion, size exclusion chromatography); not shown: GST, N-terminal, cleaved; Myc, N-terminal, kept
T1 sequence: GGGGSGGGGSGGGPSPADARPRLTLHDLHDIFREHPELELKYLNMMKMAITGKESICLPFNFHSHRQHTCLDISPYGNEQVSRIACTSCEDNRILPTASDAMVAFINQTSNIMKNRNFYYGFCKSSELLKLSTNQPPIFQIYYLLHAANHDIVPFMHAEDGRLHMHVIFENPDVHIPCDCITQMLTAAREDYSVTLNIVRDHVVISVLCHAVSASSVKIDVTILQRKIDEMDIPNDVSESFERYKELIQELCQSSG

| Molecule | Kd [1] | Kd [2] | Kd [3] | Kd [4] |
| --- | --- | --- | --- | --- |
| Myc-tagged HCMV UL53 (residues 50-292) with glycine-serine linker (from UniProt P16794 50-292) (domain or fragment) | 150 nM | 340 nM | 240 nM |  |
| B1 |  |  |  | 300 nM |
